Results published in patent US20200087394A1.

Target: CD16 receptor on Jurkat-hCD16aF cells (human) (UniProt P08637)
Test: cell-based or functional assay

CD16 receptor on Jurkat-hCD16aF cells (human), sequence (P08637 17-254): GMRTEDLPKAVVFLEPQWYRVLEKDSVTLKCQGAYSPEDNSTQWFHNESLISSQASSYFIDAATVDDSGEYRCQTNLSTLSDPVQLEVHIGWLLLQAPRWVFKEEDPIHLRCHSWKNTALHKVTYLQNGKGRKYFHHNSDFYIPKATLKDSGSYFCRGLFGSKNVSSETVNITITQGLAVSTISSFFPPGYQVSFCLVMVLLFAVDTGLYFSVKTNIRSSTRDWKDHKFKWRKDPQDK

“Anti-PDL1|atezolizumab|Fc-WT (CHOs) (from UniProt P01857 1-330) (antibody)” showed a quantity of antibody required to induce 1000 pg of IL-2 from Jurkat-hCD16aF cells with PD-L1 aAPC/CHO-K1 target cells (ng per 1000 pg of IL-2) of over 1250.
For “Anti-PDL1|durvalumab|Fc-WT (CHOs) (from UniProt P01857 1-330) (antibody)”, the quantity of antibody required to induce 1000 pg of IL-2 from Jurkat-hCD16aF cells with PD-L1 aAPC/CHO-K1 target cells (ng per 1000 pg of IL-2) was over 1250.
